Measured values reported in the supplement of paper PMC10065799, “High-throughput profiling of sequence recognition by tyrosine kinases and SH2 domains using bacterial peptide display” (eLife, 2023).

Assays:
AncSZ = experiment: phosphorylation enrichment, bacterial display (enrichment ratio); higher = better substrate or ligand; peptides without Tyr show the background
EPHB1 = EPHB1 (UniProt P54762); experiment: as above
EPHB2 = EPHB2 (UniProt P29323); experiment: as above
FGFR1 = FGFR1 (UniProt P11362); experiment: as above
Chain of FGFR1 (P11362 whole entry, looked up): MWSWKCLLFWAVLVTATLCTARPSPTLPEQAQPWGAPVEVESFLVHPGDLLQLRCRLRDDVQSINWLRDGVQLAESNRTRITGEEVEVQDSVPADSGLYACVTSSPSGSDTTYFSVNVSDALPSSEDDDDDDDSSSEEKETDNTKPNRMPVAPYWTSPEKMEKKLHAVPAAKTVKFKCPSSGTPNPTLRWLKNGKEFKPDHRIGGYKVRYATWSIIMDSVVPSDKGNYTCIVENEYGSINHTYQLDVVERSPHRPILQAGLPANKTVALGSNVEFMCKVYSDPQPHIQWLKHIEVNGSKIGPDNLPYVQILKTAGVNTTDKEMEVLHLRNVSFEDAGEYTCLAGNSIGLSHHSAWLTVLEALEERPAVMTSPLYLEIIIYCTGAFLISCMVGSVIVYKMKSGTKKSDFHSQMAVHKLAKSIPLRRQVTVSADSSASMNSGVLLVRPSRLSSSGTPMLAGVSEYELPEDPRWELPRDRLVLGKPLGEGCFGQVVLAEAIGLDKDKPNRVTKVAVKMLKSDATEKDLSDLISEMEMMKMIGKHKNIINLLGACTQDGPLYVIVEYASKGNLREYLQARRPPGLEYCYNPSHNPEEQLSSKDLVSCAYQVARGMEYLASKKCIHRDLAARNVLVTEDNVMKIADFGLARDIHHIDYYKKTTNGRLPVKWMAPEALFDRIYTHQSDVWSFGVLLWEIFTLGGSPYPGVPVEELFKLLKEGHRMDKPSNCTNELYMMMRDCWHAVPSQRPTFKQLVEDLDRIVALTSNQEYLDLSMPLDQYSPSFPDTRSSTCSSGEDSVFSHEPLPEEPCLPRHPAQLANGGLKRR

FGFR3 = FGFR3 (UniProt P22607); experiment: as above
Fer (mouse) = experiment: as above
Fes = Fes (UniProt P07332); experiment: as above
Chain of Fes (P07332 whole entry, looked up): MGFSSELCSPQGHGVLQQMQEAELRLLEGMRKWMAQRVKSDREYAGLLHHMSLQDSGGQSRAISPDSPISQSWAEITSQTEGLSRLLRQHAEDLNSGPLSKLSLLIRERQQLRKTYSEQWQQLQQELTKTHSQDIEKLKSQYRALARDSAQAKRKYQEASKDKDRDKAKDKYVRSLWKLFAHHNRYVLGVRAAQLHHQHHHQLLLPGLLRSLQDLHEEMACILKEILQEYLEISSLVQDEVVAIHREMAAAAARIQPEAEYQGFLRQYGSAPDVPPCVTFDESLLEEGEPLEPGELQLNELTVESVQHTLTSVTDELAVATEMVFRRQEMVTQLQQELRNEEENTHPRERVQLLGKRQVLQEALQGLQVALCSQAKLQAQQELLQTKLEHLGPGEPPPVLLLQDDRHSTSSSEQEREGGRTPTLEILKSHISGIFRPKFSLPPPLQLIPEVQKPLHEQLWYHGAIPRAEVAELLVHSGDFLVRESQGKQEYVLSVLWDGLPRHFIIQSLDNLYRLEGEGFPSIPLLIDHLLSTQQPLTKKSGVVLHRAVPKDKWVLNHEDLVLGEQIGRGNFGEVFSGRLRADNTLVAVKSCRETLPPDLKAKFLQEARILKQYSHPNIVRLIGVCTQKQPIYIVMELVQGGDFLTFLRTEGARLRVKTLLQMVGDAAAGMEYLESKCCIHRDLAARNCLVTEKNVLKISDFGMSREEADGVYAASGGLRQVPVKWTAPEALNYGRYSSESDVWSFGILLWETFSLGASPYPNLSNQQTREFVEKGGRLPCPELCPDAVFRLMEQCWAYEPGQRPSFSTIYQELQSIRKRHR

Fyn = Fyn (UniProt P06241); experiment: as above
Chain of Fyn (P06241 whole entry, looked up): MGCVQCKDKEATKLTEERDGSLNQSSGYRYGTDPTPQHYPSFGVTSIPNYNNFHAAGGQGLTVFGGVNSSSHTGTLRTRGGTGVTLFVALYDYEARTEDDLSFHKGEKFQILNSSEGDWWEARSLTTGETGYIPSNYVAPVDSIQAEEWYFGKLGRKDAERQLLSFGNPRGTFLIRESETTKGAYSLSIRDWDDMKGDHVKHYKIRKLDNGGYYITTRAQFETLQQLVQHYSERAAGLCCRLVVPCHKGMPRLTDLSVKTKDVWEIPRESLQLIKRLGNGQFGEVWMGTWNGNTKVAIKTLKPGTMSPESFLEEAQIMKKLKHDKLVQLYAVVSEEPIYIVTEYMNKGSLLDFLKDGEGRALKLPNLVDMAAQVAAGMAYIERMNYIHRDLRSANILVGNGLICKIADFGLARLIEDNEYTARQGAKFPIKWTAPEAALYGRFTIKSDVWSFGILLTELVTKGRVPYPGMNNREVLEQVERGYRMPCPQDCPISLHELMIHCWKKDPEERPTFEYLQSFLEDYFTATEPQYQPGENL

Hck = Hck (UniProt P08631); experiment: as above
Chain of Hck (P08631 whole entry, looked up): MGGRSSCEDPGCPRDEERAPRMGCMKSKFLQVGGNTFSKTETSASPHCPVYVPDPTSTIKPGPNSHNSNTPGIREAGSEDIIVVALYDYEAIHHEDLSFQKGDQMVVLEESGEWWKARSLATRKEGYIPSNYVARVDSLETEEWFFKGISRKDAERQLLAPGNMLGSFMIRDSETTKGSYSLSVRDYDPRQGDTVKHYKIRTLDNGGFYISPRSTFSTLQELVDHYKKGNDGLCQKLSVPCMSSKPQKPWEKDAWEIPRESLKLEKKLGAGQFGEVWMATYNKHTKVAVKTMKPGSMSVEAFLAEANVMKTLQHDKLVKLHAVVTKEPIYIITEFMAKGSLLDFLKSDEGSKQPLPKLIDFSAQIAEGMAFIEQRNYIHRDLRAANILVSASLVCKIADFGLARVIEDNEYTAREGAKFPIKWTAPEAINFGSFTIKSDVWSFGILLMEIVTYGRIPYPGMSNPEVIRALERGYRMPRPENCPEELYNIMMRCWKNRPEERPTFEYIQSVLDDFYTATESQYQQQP

Jak2 = Jak2 (UniProt O60674); experiment: as above
MERTK = MERTK (UniProt Q12866); experiment: as above
c-Abl (mouse) = experiment: as above
c-Src = experiment: as above
Grb2 SH2 = Grb2 SH2 (UniProt P62993); experiment: SH2 binding enrichment of the phosphorylated peptide, bacterial display (enrichment ratio); higher = better substrate or ligand; peptides without Tyr show the background
Chain of Grb2 SH2 (P62993 whole entry, looked up): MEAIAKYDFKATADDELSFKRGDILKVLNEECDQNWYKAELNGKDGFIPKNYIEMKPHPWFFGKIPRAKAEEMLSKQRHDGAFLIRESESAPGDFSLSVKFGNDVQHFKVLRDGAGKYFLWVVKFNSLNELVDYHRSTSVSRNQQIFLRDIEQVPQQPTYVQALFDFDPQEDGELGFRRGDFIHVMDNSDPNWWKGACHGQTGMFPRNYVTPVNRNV

SHP2-C SH2 = experiment: as above
c-Src SH2 = experiment: as above
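Throughout, for SH2 binding enrichment of the phosphorylated peptide, bacterial display: peptide library displayed on the E. coli surface as eCPX fusions, selected cells deep-sequenced, score is each peptide's frequency after selection divided by its frequency in the input.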
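Throughout, for phosphorylation enrichment, bacterial display: 11-residue human phosphosite peptides and single-mutation variants displayed on the E. coli surface, counted by deep sequencing, each peptide's frequency after selection divided by its frequency in the unselected input library; frequency after pTyr selection over input frequency; kinase dosed for 20-30% of maximal phosphorylation in three min.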

Chain of EPHB1 (P54762 whole entry, looked up): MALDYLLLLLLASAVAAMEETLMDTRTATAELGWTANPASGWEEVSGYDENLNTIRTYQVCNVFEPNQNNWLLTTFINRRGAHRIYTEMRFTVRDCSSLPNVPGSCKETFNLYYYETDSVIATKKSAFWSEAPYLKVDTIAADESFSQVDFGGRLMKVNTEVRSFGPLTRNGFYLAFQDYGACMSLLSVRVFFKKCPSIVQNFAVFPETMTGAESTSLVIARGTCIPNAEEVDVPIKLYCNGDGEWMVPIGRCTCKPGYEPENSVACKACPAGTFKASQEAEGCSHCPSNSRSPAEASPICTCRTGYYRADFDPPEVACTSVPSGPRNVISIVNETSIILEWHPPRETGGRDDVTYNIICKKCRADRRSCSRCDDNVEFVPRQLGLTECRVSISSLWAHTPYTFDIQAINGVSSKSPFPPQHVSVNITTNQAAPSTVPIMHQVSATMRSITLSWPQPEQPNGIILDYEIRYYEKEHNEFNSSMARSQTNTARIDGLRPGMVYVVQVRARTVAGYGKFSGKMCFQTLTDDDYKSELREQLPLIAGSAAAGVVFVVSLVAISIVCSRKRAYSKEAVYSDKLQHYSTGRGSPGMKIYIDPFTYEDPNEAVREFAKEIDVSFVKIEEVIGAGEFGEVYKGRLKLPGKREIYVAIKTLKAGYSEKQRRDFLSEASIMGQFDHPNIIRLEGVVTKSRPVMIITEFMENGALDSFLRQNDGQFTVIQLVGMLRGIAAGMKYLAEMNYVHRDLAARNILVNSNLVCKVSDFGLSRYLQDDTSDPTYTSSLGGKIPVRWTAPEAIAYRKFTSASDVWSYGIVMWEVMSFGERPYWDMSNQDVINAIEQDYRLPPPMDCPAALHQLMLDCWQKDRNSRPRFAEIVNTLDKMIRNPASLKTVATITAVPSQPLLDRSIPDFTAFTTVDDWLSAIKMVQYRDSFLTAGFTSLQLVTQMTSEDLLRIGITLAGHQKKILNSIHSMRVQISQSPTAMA
Chain of EPHB2 (P29323 whole entry, looked up): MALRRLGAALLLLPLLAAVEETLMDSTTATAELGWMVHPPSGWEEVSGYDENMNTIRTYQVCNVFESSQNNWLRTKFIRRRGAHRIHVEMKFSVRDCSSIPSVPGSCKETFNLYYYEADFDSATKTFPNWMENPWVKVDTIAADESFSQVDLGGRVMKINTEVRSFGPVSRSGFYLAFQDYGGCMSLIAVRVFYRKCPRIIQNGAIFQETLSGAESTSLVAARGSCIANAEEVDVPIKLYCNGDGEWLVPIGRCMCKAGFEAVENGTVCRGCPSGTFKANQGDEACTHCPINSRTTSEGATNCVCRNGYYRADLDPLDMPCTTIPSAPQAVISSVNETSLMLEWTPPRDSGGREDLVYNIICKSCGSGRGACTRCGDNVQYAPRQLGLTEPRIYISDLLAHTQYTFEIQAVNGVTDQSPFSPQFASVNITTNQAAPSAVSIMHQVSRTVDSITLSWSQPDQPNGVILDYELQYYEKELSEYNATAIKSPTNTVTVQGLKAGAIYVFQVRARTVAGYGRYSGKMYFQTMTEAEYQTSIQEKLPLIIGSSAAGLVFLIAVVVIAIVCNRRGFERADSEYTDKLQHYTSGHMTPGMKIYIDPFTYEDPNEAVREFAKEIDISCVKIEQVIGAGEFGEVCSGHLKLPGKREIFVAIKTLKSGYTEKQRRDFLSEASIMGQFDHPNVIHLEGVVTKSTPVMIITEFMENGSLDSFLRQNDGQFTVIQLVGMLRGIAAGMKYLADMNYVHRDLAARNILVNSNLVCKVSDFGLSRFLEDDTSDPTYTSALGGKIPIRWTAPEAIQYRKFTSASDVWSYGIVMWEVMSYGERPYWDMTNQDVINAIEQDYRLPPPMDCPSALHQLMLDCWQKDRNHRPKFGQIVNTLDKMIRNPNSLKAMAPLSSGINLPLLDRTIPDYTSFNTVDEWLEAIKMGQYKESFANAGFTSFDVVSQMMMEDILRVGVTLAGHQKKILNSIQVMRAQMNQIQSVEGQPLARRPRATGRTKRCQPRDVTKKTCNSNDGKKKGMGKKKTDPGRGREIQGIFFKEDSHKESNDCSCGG

Row | Sequence | phosphorylation enrichment (AncSZ) | phosphorylation enrichment (EPHB1) | phosphorylation enrichment (EPHB2) | phosphorylation enrichment (FGFR1) | phosphorylation enrichment (FGFR3) | phosphorylation enrichment (Fer (mouse)) | phosphorylation enrichment (Fes) | phosphorylation enrichment (Fyn) | phosphorylation enrichment (Hck) | phosphorylation enrichment (Jak2) | phosphorylation enrichment (MERTK) | phosphorylation enrichment (c-Abl (mouse)) | phosphorylation enrichment (c-Src) | SH2 binding enrichment (Grb2 SH2) | SH2 binding enrichment (SHP2-C SH2) | SH2 binding enrichment (c-Src SH2)
1 | SKGFAYVHFDS [PABPC5_Y149_YF] | 0.814 | 0.477 | 0.466 | 0.393 | 0.584 | 0.408 | 0.871 | 0.381 | 0.378 | 0.832 | 0.378 | 0.681 | 0.314 | 1.02 | 1.29 | 1.96
2 | SKLTIYDARPS [MTM1_Y277] | 0.779 | 0.629 | 0.737 | 0.606 | 0.751 | 0.484 | 1.17 | 2.4 | 7.23 | 0.655 | 0.825 | 0.593 | 2.05 | 0.792 | 0.595 | 0.466
3 | SLEKGYELPDG [ACTC1_Y242_S241G] | 0.994 | 0.475 | 0.499 | 0.438 | 0.545 | 0.436 | 0.909 | 0.49 | 0.488 | 0.756 | 0.35 | 0.6 | 0.368 | 0.832 | 0.847 | 5.21
4 | SLGKGYSVGGC [MC4R_Y35_D37V] | 0.724 | 0.523 | 0.501 | 0.456 | 0.627 | 0.484 | 0.898 | 0.432 | 0.434 | 0.846 | 0.354 | 0.593 | 0.384 | 0.888 | 0.867 | 0.517
5 | SLIDGYFRLTE [JAK2_Y372_A377E_YF] | 1.07 | 0.571 | 0.436 | 0.553 | 0.715 | 0.545 | 1.08 | 0.456 | 0.442 | 4.29 | 0.542 | 0.867 | 0.446 | 0.784 | 6.41 | 1.85
6 | SLIDGYYRLTE [JAK2_Y372_A377E] | 1.17 | 0.521 | 0.531 | 1.11 | 0.997 | 0.425 | 1.1 | 0.427 | 0.583 | 5.79 | 0.441 | 0.533 | 0.639 | 0.843 | 1.21 | 2.49
7 | SLIERYEPSET [PLCD1_Y258] | 1.07 | 0.742 | 0.602 | 0.661 | 0.678 | 0.574 | 1.1 | 0.502 | 0.54 | 0.966 | 0.727 | 0.717 | 0.497 | 1 | 0.62 | 0.759
8 | SMVVPYEPPEV [TP53_Y220_V216M] | 1.11 | 0.592 | 0.625 | 0.45 | 0.81 | 0.617 | 1.33 | 0.462 | 0.407 | 1.3 | 0.465 | 0.852 | 0.526 | 0.892 | 0.659 | 0.769
9 | SNPAYYVLEGV [INPPL1_Y987_N982S] | 1 | 0.769 | 0.609 | 15.1 | 12.1 | 0.515 | 0.921 | 1.25 | 0.917 | 4 | 7.46 | 0.538 | 1.21 | 0.891 | 1.19 | 3.28
10 | SNSAAYSGSVA [PDLIM5_Y382_T381A] | 0.512 | 0.398 | 0.393 | 0.33 | 0.421 | 0.343 | 0.566 | 0.404 | 0.354 | 0.636 | 0.381 | 0.697 | 0.409 | 0.774 | 0.559 | 0.481
11 | SPFAVYRFFTF [RPGRIP1_Y826_YF] | 1.22 | 0.501 | 0.519 | 0.637 | 0.798 | 0.496 | 1.33 | 0.68 | 0.867 | 1.08 | 0.45 | 0.961 | 0.91 | 0.689 | 0.729 | 0.462
12 | SPGGDYAAMGA [ERBB3_Y1276_G1271S] | 0.7 | 1.52 | 0.901 | 0.705 | 0.609 | 0.456 | 0.861 | 0.484 | 0.455 | 0.708 | 0.476 | 0.622 | 0.445 | 0.749 | 0.487 | 1.03
13 | SPPPAFTPMSG [ERBB4_Y1056_Y1056F] | 0.597 | 0.349 | 0.416 | 0.402 | 0.465 | 0.439 | 0.441 | 0.305 | 0.469 | 0.496 | 0.461 | 0.45 | 0.442 | 0.67 | 0.615 | 0.364
14 | SQSKGYRPKLF [SIPA1L3_Y1376_G1371S_YF] | 0.503 | 0.415 | 0.32 | 0.433 | 0.42 | 0.368 | 0.549 | 0.417 | 0.41 | 0.5 | 0.458 | 0.478 | 0.435 | 0.852 | 0.498 | 0.528
15 | SRDTCYLVLAV [AMH_Y195_R194C] | 1.52 | 0.719 | 0.684 | 0.786 | 1.12 | 0.62 | 1.48 | 0.555 | 0.651 | 1.4 | 0.552 | 1.06 | 0.666 | 0.752 | 0.616 | 0.453
16 | SSYDIYHLSRE [KIR3DL2_Y253] | 1.27 | 2.42 | 3.54 | 2.73 | 2.01 | 1.74 | 0.851 | 13 | 12.2 | 0.724 | 6.05 | 1.18 | 9.33 | 0.842 | 0.816 | 0.73
17 | STEEQYRIRQV [EFHC1_Y115] | 0.718 | 0.314 | 0.416 | 0.425 | 0.554 | 0.375 | 0.589 | 0.475 | 0.41 | 0.516 | 0.345 | 0.43 | 0.331 | 0.802 | 0.738 | 0.609

Row | Sequence | phosphorylation enrichment (AncSZ) | phosphorylation enrichment (EPHB1) | phosphorylation enrichment (EPHB2) | phosphorylation enrichment (FGFR1) | phosphorylation enrichment (FGFR3) | phosphorylation enrichment (Fer (mouse)) | phosphorylation enrichment (Fes) | phosphorylation enrichment (Fyn) | phosphorylation enrichment (Hck) | phosphorylation enrichment (Jak2) | phosphorylation enrichment (MERTK) | phosphorylation enrichment (c-Abl (mouse)) | phosphorylation enrichment (c-Src) | SH2 binding enrichment (Grb2 SH2) | SH2 binding enrichment (SHP2-C SH2) | SH2 binding enrichment (c-Src SH2)
18 | STGSRYQPLAS [NCAPD2_Y1325] | 0.474 | 0.424 | 0.435 | 0.42 | 0.494 | 0.423 | 0.609 | 0.433 | 0.414 | 0.596 | 0.549 | 0.505 | 0.423 | 0.826 | 0.651 | 0.486
19 | SVTCTYSAALN [TP53_Y126_P128A] | 1.31 | 0.876 | 0.803 | 0.552 | 0.929 | 0.552 | 1.72 | 0.657 | 0.679 | 1.41 | 0.62 | 0.947 | 0.836 | 0.686 | 0.654 | 0.395
20 | SVTCTYSPALF [TP53_Y126_N131Y_YF] | 1.51 | 0.872 | 0.694 | 0.542 | 1.17 | 0.727 | 1.74 | 0.837 | 0.695 | 1.52 | 0.479 | 1.05 | 1 | 0.795 | 0.685 | 0.422
21 | SVVVPYERPEV [TP53_Y220_P222R] | 0.958 | 0.439 | 0.513 | 0.495 | 0.627 | 0.51 | 0.988 | 0.475 | 0.502 | 0.846 | 0.401 | 0.731 | 0.432 | 0.889 | 0.57 | 1.12
22 | SWKRRYFLLRA [APBB1IP_Y331] | 0.727 | 0.595 | 0.58 | 0.614 | 0.655 | 0.565 | 0.631 | 0.564 | 0.943 | 0.609 | 0.759 | 0.637 | 0.713 | 0.639 | 0.689 | 0.394
23 | SYSGEYGGGGG [ZG16_Y30] | 0.604 | 0.398 | 0.452 | 0.53 | 0.552 | 0.444 | 0.685 | 0.485 | 0.525 | 0.4 | 0.439 | 0.433 | 0.385 | 0.784 | 0.635 | 0.495
24 | TDEFEYDELIV [TGM1_Y136_YF] | 2.29 | 1.12 | 2.23 | 1.69 | 2.03 | 0.61 | 2.77 | 1.59 | 1.56 | 1.34 | 0.622 | 0.91 | 0.716 | 0.938 | 0.859 | 0.563
25 | TFRPPYFHRNC [HGD_Y333_YF] | 0.733 | 0.522 | 0.946 | 0.617 | 0.771 | 0.626 | 0.869 | 0.473 | 0.661 | 0.717 | 1.03 | 0.635 | 0.454 | 1.1 | 1.41 | 1.09
26 | TFTVSYLPDMS [FLNC_Y1602_YF] | 1.08 | 0.631 | 0.599 | 0.607 | 0.735 | 0.436 | 1.28 | 0.495 | 0.48 | 0.975 | 0.442 | 0.835 | 0.478 | 0.792 | 0.799 | 0.594
27 | TFYQMYDKGLV [IARS2_Y231] | 1.38 | 2.49 | 3.66 | 0.986 | 1.25 | 1.33 | 0.916 | 3.3 | 3.46 | 0.797 | 7.11 | 0.91 | 3.71 | 0.941 | 1.29 | 0.838
28 | TGQEEYSAMRD [KRAS_Y64_A59T] | 1.08 | 0.789 | 0.536 | 0.538 | 0.63 | 0.462 | 1 | 0.519 | 0.563 | 0.821 | 0.475 | 0.642 | 0.525 | 0.838 | 0.704 | 0.639
29 | TLDTDYQMTKR [ADA_Y308] | 0.77 | 0.45 | 0.504 | 0.462 | 0.584 | 0.697 | 0.781 | 0.483 | 0.445 | 0.632 | 0.363 | 0.499 | 0.35 | 0.92 | 0.597 | 0.558
30 | TLKDVYDDGKF [RPS6KA3_Y483_YF] | 0.988 | 0.542 | 0.513 | 0.614 | 0.66 | 0.488 | 1.04 | 0.548 | 0.66 | 0.655 | 0.515 | 0.549 | 0.625 | 0.781 | 0.566 | 0.433
31 | TLKVGYKEKQR [EPHA3_Y659_T660K] | 0.367 | 0.45 | 0.366 | 0.348 | 0.555 | 0.358 | 0.699 | 0.333 | 0.328 | 0.812 | 0.37 | 0.547 | 0.334 | 0.919 | 1.14 | 1.02
32 | TLLSAYQIPRT [GAB2_Y324_P320L] | 0.729 | 0.55 | 0.42 | 0.418 | 0.531 | 0.545 | 0.74 | 0.387 | 0.533 | 0.68 | 1.18 | 9.51 | 0.435 | 0.91 | 0.73 | 0.786
33 | TLNHQYDFTFD [CSNK1A1_Y292_YF] | 1.22 | 0.553 | 0.543 | 0.57 | 0.653 | 0.543 | 1.07 | 0.507 | 0.495 | 0.989 | 0.6 | 0.705 | 0.485 | 0.844 | 0.701 | 8.5
